Positions of bridges follow the written chain, without caps; N, C: chain ends. No end group written: not given here.
Assays:
[1] = molecular target: T1, 12p4 (disulfide 1-9; also: displayed on phage); assay: phage display panning (Ph.D.-C7C) on immobilized antibody, bound phage eluted; 1x clone
T1 construct: one clone only
T1 peptide: CARNSTPPC
Text: (§1) A phage display system (Ph.D.-C7C Peptide Library Kit, New England Biolabs) was used to select 7-mer peptides in a cysteine loop for either hIgM12 or hIgM22. Briefly, a random peptide bacteriophage library was panned against immobilized antibody. Unbound bacteriophage was washed away, and bound bacteriophage was eluted, regrown and re-panned against the antibody. Multiple (three to seven) rounds of panning led to development of a peptide consensus sequence for each antibody. Two similar consensus sequences were identified for hIgM22, while one consensus sequence was identified for hIgM12 (Table 1).

[2] = molecular target: T2, 12p9a (disulfide 1-9; also: displayed on phage); assay: phage display panning (Ph.D.-C7C) on immobilized antibody, bound phage eluted; 11x clones
T2 peptide: CHQTEKLTC
Text: as §1

B1: B7-DC XAb (antibody)
light: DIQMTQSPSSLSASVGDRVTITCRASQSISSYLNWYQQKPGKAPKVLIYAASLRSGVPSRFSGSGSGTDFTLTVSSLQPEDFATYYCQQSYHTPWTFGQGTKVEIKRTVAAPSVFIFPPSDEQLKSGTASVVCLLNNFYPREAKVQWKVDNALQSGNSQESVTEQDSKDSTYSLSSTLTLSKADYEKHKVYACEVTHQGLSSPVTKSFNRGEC
heavy: QVQLQESGPGLLKPSETLSLTCTVSGGSVSLYYWSWIRQSPGKEPEWIGYIYSSGSTDYNPSLRSRVTISLDTSNNRFSLNLRSVTAADTAVYWCARSASIRGWFDPWGQGTLVTVSSGSASAPTLFPLVSCENSPSDTSSVAVGCLAQDFLPDSITFSWKYKNNSDISSTRGFPSVLRGGKYAATSQVLLPSKDVMQGTDEHVVCKVQHPNGNKEKNVPLPVIAELPPKVSVFVPPRDGFFGNPRKSKLICQATGFSPRQIQVSWLREGKQVGSGVTTDQVQAEAKESGPTTYKVTSTLTIKESDWLSQSMFTCRVDHRGLTFQQNASSMCVPDQDTAIRVFAIPPSFASIFLTKSTKLTCLVTDLTTYDSVTISWTRQNGEAVKTHTNISESHPNATFSAVGEASICEDDWNSGERFTCTVTHTDLPSPLKQTISRPKGVALHRPDVYLLPPAREQLNLRESATITCLVTGFSPADVFVQWMQRGQPLSPEKYVTSAPMPEPQAPGRYFAHSILTVSEEEWNTGETYTCVVAHEALPNRVTERTVDKSTGKPTLYNVSLVMSDTAGTCY
notes: Human monoclonal IgM from a Waldenstrom's macroglobulinemia patient; J chain not described; Used at 10 ug/ml; also called hIgM12; sHIgM12
[1]
  binding result: binds
[2]
  binding result: binds

Reference: US20220251157A1 (MAYO FOUNDATION FOR MEDICAL EDUCATION AND RESEARCH, published 2022)
